Here are results for 19 molecules from PMC8930183, “Structure of the Pf12 and Pf41 heterodimeric complex of Plasmodium falciparum 6-cysteine proteins” (FEMS Microbes, 2022).

Positions count from the first letter of the chain named.

What all share (conditions): both partners purified
In experiment [1] the target is T1, Pf41 D1D2 (residues 21-368), untagged (Plasmodium falciparum, UniProt Q8I1Y0).
T1 construct: Pf41, Plasmodium falciparum 6-cysteine protein, residues K21-S368 (D1 with the inserted-domain-like region ID, and D2); lacks the signal peptide and ten C-terminal residues; After TEV cleavage three residues, GAS, remain at the N-terminus as cloning artefacts; N-glycosylation sites kept; treated with PNGase F before crystallisation; also called Pf41 wildtype; source: Spodoptera frugiperda 21 …
As to the kind of experiment: BLI; Octet RED96e; nanobodies loaded on NTA sensors; untagged Pf12 or Pf41 (6-200 nM) or their domains in solution; PBS pH 7.4, 0.1% BSA, 0.05% TWEEN-20, 25°C; global 1:1 fit. A general note: Biolayer interferometry detects binding as a change in optical thickness at a sensor tip.

Experiment [2] has as its target T2, Pf12 D1D2 (residues 28-304), untagged (Plasmodium falciparum, UniProt C6KSX0).
T2 construct: Pf12, Plasmodium falciparum 6-cysteine protein, residues N28-S304 (domains D1 and D2); lacks the signal peptide and the GPI-anchor site; After TEV cleavage three residues, GAS, remain at the N-terminus as cloning artefacts; N-glycosylation sites kept; treated with PNGase F before crystallisation; also called Pf12 wildtype; source: Spodoptera frugiperda 21 cells, secreted into growth media, …
The description is as above.

In experiment [3] the target is T3, Pf12 labelled with DyLight 488 (Plasmodium falciparum (sequence as 3D7), DyLight 488 (N-hydroxysuccinimide ester), about 2.4 dye per protein).
T3 construct: Pf12, Plasmodium falciparum 6-cysteine protein; The FRET methods say only 'Pf12'; also called Pf12-DL488
T3 chain: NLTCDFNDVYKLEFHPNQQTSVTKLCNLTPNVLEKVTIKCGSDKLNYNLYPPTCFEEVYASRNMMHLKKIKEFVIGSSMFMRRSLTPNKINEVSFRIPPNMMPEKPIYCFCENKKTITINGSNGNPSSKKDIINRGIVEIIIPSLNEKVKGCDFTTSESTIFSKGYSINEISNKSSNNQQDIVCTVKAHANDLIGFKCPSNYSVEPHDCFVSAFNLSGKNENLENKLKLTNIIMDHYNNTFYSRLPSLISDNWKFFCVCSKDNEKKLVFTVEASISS
In words: FRET or BRET; Pf12-DL488 and Pf41-DL594 mixed 1:1 with five-fold excess of nanobody; FRET signal relative to the no-nanobody control. For orientation: In BRET a luciferase serves as donor, and the signal depends on an acceptor being close.

Experiment [4] addresses T4, Pf12 D2 (residues E174-S304) (Plasmodium falciparum, UniProt C6KSX0).
T4 construct: Pf12, Plasmodium falciparum, C-terminal 6-cys domain D2, residues E174-S304; also called Pf12 D2 domain; source: Spodoptera frugiperda 21 cells, purified by the same protocol as Pf12 D1D2; not shown: His8, N-terminal, cleaved
As to the kind of experiment: BLI; Octet RED96e; nanobodies loaded on NTA sensors; untagged Pf12 or Pf41 (6-200 nM) or their domains in solution; PBS pH 7.4, 0.1% BSA, 0.05% TWEEN-20, 25°C; global 1:1 fit.

The target of experiment [5] is T5, octa-histidine tagged Pf41 D1D2 (residues 21-368) (Plasmodium falciparum, UniProt Q8I1Y0 21-368).
T5 construct: Pf41, Plasmodium falciparum 6-cysteine protein, residues K21-S368; TEV-cleavable tag left on; loaded on NTA sensors; also called tagged wildtype Pf41; source: Spodoptera frugiperda 21 cells, secreted into growth media, purified as tagged protein (Ni-IMAC, SEC); not shown: His8, N-terminal, kept
T5 sequence: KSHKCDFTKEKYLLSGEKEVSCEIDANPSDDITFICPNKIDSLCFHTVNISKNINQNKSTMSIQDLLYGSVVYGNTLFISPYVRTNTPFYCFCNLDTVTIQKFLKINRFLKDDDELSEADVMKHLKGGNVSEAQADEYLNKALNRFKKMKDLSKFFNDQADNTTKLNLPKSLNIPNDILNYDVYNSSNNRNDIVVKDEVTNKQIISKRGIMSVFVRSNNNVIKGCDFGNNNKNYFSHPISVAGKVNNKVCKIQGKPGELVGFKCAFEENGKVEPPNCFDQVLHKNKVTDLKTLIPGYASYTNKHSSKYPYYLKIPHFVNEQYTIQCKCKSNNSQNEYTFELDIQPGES
In words: BLI; Octet RED96e; octa-histidine tagged Pf41 loaded on NTA sensors; untagged Pf12 wildtype, mutant or single domain 31-1000 nM; PBS pH 7.4, 0.1% BSA, 0.05% TWEEN-20, 25°C; read-out relative maximum response against wildtype.

B1: nanobody G7 (VHH)
VHH: QVQLQESGGGLVQAGGSLRLSCAASGRTFSSYGMGWFRQAPGTEREFVAAISWSGDSTYYADSVKGRFTISIDKAKNTVYLQMNSLKPEDTAVYYCAADHALVVGGTYNYWGQGTQVTVSS
notes: alpaca, immunised with Pf12-Pf41 complex; Pf12-specific; also called Nb G7; source: E. coli WK6, periplasmic extract, purified (HisTrap, SEC)
With B1, the binding result in experiment [1] is reported as “no binding”. Also, the Kd in experiment [2] was ~25 nM. The “percent reduction of the Pf12-Pf41 FRET signal” value (“percent reduction” for short) in experiment [3] was ~80%.

B2: nanobody C12 (VHH)
VHH: QVQLQESGGGLVQAGGSLRLSCAASGRTFSSYSMGWFRQAPGKQRELVAAISSGGSTDYTDSVKGRFTISRDNAKNTVYLQMNSLKPEDTAVYYCAAGDYSDYVGMWDIWGQGTQVTVSS
notes: alpaca, immunised with Pf12-Pf41 complex; Pf12-specific; source: E. coli WK6, periplasmic extract, purified (HisTrap, SEC)
For the molecule B2, the results for the binding result in experiment [1], in experiment [2] and in experiment [4] were “no binding”, “binds” and “binds”, respectively.

B3: nanobody C1 (VHH)
VHH: QVQLQESGGGLVQPGASLRLSCTVSGIIMADHAIGWFRQAPGKEREGIACFIRSDGTTYYSDSAKGRFTISRDNAKNTVYLQMNSLKPEDTADYYCATGKIVCANGFIVDYGSDYRGKGTQVTVSS
notes: as for B2
B3: the binding result is reported as “no binding” in experiment [1], “binds” in experiment [2] and “binds” in experiment [4].

B4: nanobody D12 (VHH)
VHH: QVQLQESGGGLVEAGGSLRLSCAASTRTFSSLVMGWFRQAPGKERELVAAISRSGDSTDYTDSVKGRFTISRDNAKNTVYLQMNSLKPEDTAVYSCAADPTGVDSSLAVGLWVYWGQGTQVTVSS
notes: as for B2
For B4, the results for the binding result in experiment [1], in experiment [2] and in experiment [4] were “no binding”, “binds” and “binds”, respectively.

B5: nanobody A10 (VHH)
VHH: QVQLQESGGGFVQPGGSLRLSCAASGFTLDYYFIGWFRQAPGKEREGVSCISSSDGSTYYAESVKGRFTISRDNAKNTVYLQMNSLKPEDTAVYYCATDKIVCSSDFIVDYGMDSRGKGTQVTVSS
notes: as for B2
B5: in experiment [1], the binding result is on record as “no binding”. In addition, the Kd in experiment [2] was < 0.01 nM.

B6: nanobody H9 (VHH)
VHH: B5 VHH with F11L, F33A, S52M, E62D, K76V, S85G, S104G, D106G, M113T, S115Y
notes: as for B2
Consider B6, for which, in experiment [1], the binding result is listed as “no binding”. Moreover, the equilibrium dissociation constant (Kd) in experiment [2] was < 0.01 nM. Moreover, in experiment [3], the “percent reduction” value was ~90%.

B7: nanobody H11 (VHH)
VHH: QVQLQESGGGLVQPGGSLRLSCAGSGFTLDHYAIGWFRQAPGKEREGVSCIISSDSSTYYTDSVKGRFTISRDNAKNTVYLQMNSLKPEDTAVYYCATEKIVCASGFIVDYGMDYCGKGTQVTVSS
notes: as for B2
With B7, the binding result in experiment [1] is “no binding”; in experiment [2], “binds”; in experiment [4] it was “binds”.

B8: Pf12 D1D2 F241L (domain or fragment)
chain: T3 chain with F214L
notes: Pf12, Plasmodium falciparum, residues N28-S304 (D1D2); source: Spodoptera frugiperda 21 cells, purified (Ni-IMAC, TEV cleavage, SEC); not shown: His8, N-terminal, cleaved
As to B8, in experiment [5], the binding result is listed as “binds”.

B9: Pf12 D1D2 R123A (domain or fragment)
chain: T3 chain with R96A
notes: as for B8
For the molecule B9, the binding result in experiment [5] is given as “binds”.

B10: Pf12 D1D2 R110A (domain or fragment)
chain: T3 chain with R83A
notes: as for B8
B10: the binding result in experiment [5] is on record as “binds”.

B11: Pf12 D1D2 H234A (domain or fragment)
chain: T3 chain with H207A
notes: as for B8
For B11, the binding result in experiment [5] is on record as “binds”.

B12: Pf12 D1D2 R109A (domain or fragment)
chain: T3 chain with R82A
notes: as for B8
Regarding B12, the binding result in experiment [5] is “binds”.

B13: Pf12 D1D2 M106A (domain or fragment)
chain: T3 chain with M79A
notes: as for B8
Take B13: the binding result in experiment [5] was “binds”.

B14: Pf12 D1D2 M108A (domain or fragment)
chain: T3 chain with M81A
notes: as for B8
As to B14, the binding result in experiment [5] is “binds”.

B15: nanobody B11 (VHH)
VHH: QVQLQESGGGLVQAGGSLRLSCAASGRTFSSYAMGWFRQAPGKEREFVAAISWNGGRTYYADSVKGRFTISRDNAKNTVYLQMNSLKPEDTAVYYCAADPTGTVDDETGIYVYWGQGTQVTVSS
notes: as for B2
On to B15, for which the binding result was “no binding” in experiment [1], “binds” in experiment [2] and “binds” in experiment [4].

B16: nanobody A11 (VHH)
VHH: QVQLQESGGGLVQPGGSLRLSCAASGFTFDDYAIGWFRQAPGKEREGVSCIMSSDGSAYYADSVKGRFTISRDNAKNTVYLQMNSLRPEDTANYYCATDKIVCSTGFIVDYGMHYGGKGTQVTVSS
notes: as for B2
Take B16: the binding result is on record as “no binding” in experiment [1], “binds” in experiment [2] and “binds” in experiment [4]. Besides, the “percent reduction” value in experiment [3] was ~90%.

B17: nanobody A3 (VHH)
VHH: QVQLQESGGGLVQAGGSLRLSCAASGRTFSNYAMGWFRQAPGKEREFVAAITWSGDSTYYGDSVKGRFTISRDNAKSTAYLQMNSLKPEDTAVYYCAADEAVVTTTLQWDYWGQGTQVTVSS
notes: as for B2
Turning to B17, the binding result in experiment [1] is “no binding”; in experiment [2], “binds”; in experiment [4], “binds”. In addition, in experiment [3], the “percent reduction” value was ~90%.

B18: nanobody B5 (VHH)
VHH: QVQLQESGGGLVQPGGSLRLSCAASGFTLDEYAMGWFRQAPGKEREGISCISSSDGTTFYADSVKGRFTISRDNAKNTVYLQMNSLKPEDTAVYYCATDCVGSYSRYWGQGTQVTVSS
notes: alpaca, immunised with Pf12-Pf41 complex; Pf12-specific; The 'Nb B5 of PDB ID 7KJH' used as a search model may be another nanobody of the same label; source: E. coli WK6, periplasmic extract, purified (HisTrap, SEC)
For B18, the binding result in experiment [1] is reported as “no binding”. Further, the Kd in experiment [2] is < 0.01 nM.

B19: nanobody C9 (VHH)
VHH: QVQLQESGGGLVQPGGSLRLSCAASGFTLDYYAIGWFRQAPGKEREGVSCISSSGGSTYYADSVKGRSTISRDNAKNTVYLQMNSLKPEDTAVYYCATDCLRDYGLEYVPGRYDYWGQGTQVTVSS
notes: as for B2
With B19, the binding result in experiment [1] is given as “no binding”. Moreover, in experiment [2], the Kd was < 0.01 nM.

As usually defined, the Kd is the constant that tells how readily two partners part at equilibrium. A lower Kd goes with a tighter complex.
